Experimental findings from patent US20240239878A1 (SHANGHAI QILU PHARMACEUTICAL RESEARCH AND DEVELOPMENT CENTRE, published 2024) are described below.

Experiment [1] has as its target T1, human DLL3 antigen protein (Kactus Biosystems, Cat. No. DLL-HM103) (human, UniProt Q9NYJ7 27-492).
T1 sequence: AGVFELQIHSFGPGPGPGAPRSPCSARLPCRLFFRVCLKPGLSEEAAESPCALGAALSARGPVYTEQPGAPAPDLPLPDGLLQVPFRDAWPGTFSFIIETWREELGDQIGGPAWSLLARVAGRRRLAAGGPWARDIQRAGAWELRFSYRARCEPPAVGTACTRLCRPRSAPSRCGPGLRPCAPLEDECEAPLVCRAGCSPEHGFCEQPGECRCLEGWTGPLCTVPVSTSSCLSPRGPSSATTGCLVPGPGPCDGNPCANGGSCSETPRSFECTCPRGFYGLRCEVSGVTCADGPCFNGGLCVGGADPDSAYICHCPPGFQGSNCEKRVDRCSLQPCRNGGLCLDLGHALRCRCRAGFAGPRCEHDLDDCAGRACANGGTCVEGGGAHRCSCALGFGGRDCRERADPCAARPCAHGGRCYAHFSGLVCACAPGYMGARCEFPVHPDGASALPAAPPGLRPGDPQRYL
The experiment is described as follows: SPR (Biacore 8K), antibody captured on anti-human Fc, DLL3 in solution. As to the method:
The affinity and kinetic properties of the humanized anti-DLL3 antibody to human DLL3 were analyzed using a Biacore 8K instrument. CM5 chips were activated with EDC and NHS, followed by immobilization of anti-human Fc murine mAb and blocked with ethanolamine.
Human DLL3 was diluted two-fold serially to serial concentrations (100 nM-0.39 nM) and associated for 90 s and dissociated for 600 s at a flow rate of 50 μL/min.
After completion of each cycle of the experiment, the captured antibody was removed together with the antigen by washing with a 3M MgCl₂ solution at a flow rate of 30 μL/min for 30 s to complete the regeneration of the chip. The raw data were analyzed using Biacore Insight Evaluation Software (3.0.12.15655) software and fitted with a (1:1) Langmuir model.

The target of experiment [2] is T2, human DLL3 on SHP-77 cells (human, UniProt Q9NYJ7 27-618).
T2 construct: also called DLL3-expressing cells (SHP-77)
T2 sequence: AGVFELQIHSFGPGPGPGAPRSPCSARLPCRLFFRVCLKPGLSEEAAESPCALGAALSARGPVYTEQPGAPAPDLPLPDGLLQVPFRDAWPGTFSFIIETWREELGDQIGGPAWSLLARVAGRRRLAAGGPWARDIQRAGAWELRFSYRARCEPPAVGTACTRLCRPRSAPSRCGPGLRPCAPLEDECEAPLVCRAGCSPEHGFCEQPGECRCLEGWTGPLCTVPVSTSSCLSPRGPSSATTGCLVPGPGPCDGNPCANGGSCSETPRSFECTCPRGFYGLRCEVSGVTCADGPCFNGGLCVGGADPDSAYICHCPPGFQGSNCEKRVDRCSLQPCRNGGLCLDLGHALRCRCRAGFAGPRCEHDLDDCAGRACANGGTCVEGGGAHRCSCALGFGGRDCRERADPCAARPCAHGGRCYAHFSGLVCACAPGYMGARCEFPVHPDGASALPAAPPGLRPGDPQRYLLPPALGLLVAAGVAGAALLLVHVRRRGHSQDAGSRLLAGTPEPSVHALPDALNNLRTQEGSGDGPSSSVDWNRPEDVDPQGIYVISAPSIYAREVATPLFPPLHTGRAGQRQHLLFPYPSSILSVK
Briefly: flow cytometry, SHP-77 cells. The method, then: SHP-77 and HEK293-cyno DLL3 cells were cultured. The culture medium for SHP-77 cells were RPMI1640+10% FBS, and the culture medium for HEK293 cyno DLL3 cells were DMEM+10% FBS+200 μg/ml Hygromycin. The cells were cultured in a T75 cell culture flask at a 37° C. 5% CO₂ incubator. When using cells, they are washed with sterile DPBS, digested with 0.25% trypsin EDTA for about 5 minutes, and then stopped with a complete medium.
The digested cells were centrifuged at 1000 rpm for 5 min at room temperature. The supernatant was discarded and the cells were resuspended in 100 μL of 1% BSA (in PBS). The cells were counted and adjusted to a cell density of 1E6/m. The dilute cells were seeded in a 96-well round-bottom culture plate (corning 3799), and centrifuged at 1500 rpm for 5 min at 4° C. The supernatant was discarded and the cells were stored at 4° C. until use. Antibody samples to be tested were diluted with 1% BSA (in PBS) at a starting concentration of 100 nM, downwards by a 10-fold gradient for 7 concentrations. The cells were resuspended with the diluted antibody at 100 μL/well and incubated for 1 hour at 4° C. The cells were centrifuged at 1500 rpm for 5 minutes at 4° C. and the supernatant was discarded. The cells were resuspended and washed with 160 μL of 1% BSA (in PBS), centrifuged at 1500 rpm for 5 minutes at 4° C. The supernatant was discarded. The secondary antibody (goat anti human IgG Fc PE) was diluted 1:200 with 1% BSA (in PBS) according to the manufacturer's instructions and the cells were resuspended with the diluted secondary antibody, 100 μL/well, and incubated for 0.5 h at 4° C. The cells were centrifuged at 1500 rpm for 5 minutes at 4° C. and the supernatant was discarded. The cells were resuspended and washed with 160 μL of 1% BSA (in PBS), centrifuged at 1500 rpm for 5 minutes at 4° C. The supernatant was discarded. The cells were resuspended in 100 μL of 1% BSA (in PBS), and filtered across a 300 mesh gauze. The mean fluorescence intensity of the PE channels was measured by flow cytometry.
The analyzed mean fluorescence intensity was imported into Graphpad to analyze the median-binding concentration (hereinafter referred to as EC50) of antibody and cell and the top mean fluorescence intensity (Top MFI).

B1: DLL3-26 camelid-derived anti-DLL3 chimeric antibody (antibody, human IgG1, V domains shown)
VH: QVQLVESGGGSVQAGGSLRLSCAASGDIYSSSYVGWFRQAPGKEREGVAIIYTSGDSTYYANSVKGRFTISQDKAKKTLYLQMNSLKPEDTAMYYCAARFAIDNSNYWGQGTQVTVSS
Take B1: in experiment [1], the Kd came out at 32.2 pM, the koff stood at 1.23e-05 s⁻¹ and the on-rate (kon) is 382000 M⁻¹ s⁻¹. In addition, in experiment [2], the EC50 is 499 pM and the “Top MFI” value worked out at 841 MFI.

B2: hDLL3-26 camelid-derived humanized anti-DLL3 antibody (antibody, V domains shown)
VH: EVQLVESGGGLVQPGGSLRLSCAASGDIYSSSYVGWFRQAPGKEREGVAIIYTSGDSTYYADSVKGRFTISRDNSKNTLYLQMNSLRAEDTAVYYCAARFAIDNSNYWGQGTLVTVSS
In experiment [1], B2 came in with a Kd of 1690 pM, an off-rate constant (koff) of 0.000355 s⁻¹ and a kon of 210000 M⁻¹ s⁻¹. In experiment [2], the 50% effective concentration (EC50) amounted to 786 pM and the “Top MFI” value amounted to 696 MFI.

B3: DLL3-122 camelid-derived anti-DLL3 chimeric antibody (antibody, human IgG1, V domains shown)
VH: QVQLVESGGGSVQAGGSLRLSCTASGDTYRSYCMGWFRKAPGKEREGVADIVSDGSTSYADSVKGRFTISKDNAKNTLYLQMNSLKPEDTAMYYCAVDRGGSGGYCYTGRYDYWGQGTQVTVSS
As to B3, in experiment [1], binding was characterised by a dissociation constant (Kd) of 4210 pM, the koff amounted to 0.000392 s⁻¹ and the kon turned out to be 93200 M⁻¹ s⁻¹. In experiment [2], the half-maximal effective concentration (EC50) was found to be 478 pM and the “Top MFI” value was determined as 877 MFI.

B4: hDLL3-122 camelid-derived humanized anti-DLL3 antibody (antibody, V domains shown)
VH: EVQLVESGGGLVQPGGSLRLSCAASGDTYRSYCMGWFRQAPGKEREGVADIVSDGSTSYADSVKGRFTISRDNSKNTLYLQMNSLRAEDTAVYYCAVDRGGSGGYCYTGRYDYWGQGTLVTVSS
With B4, in experiment [1], the dissociation constant (Kd) amounted to 4730 pM, the koff was found to be 0.000466 s⁻¹ and the kon is 98500 M⁻¹ s⁻¹. In experiment [2], the concentration for a half-maximal effect (EC50) was found to be 589 pM and the “Top MFI” value turned out to be 778 MFI.

B5: DLL3-3 camelid-derived anti-DLL3 chimeric antibody (antibody, human IgG1, V domains shown)
VH: DVQLVESGGGSVQAGGSLKLSCKSPTYTISSGYMGWFRQAPGKEREGVAAIYIGGSTTLYADSVKGRFTISADNAEKTVYLQMNTLKPEDSAMYYCAAQLRPNSAYHPLDGRKYNYWGQGTQVTVSS
In experiment [1], B5 registered an equilibrium dissociation constant (Kd) of 127 pM, an off-rate (koff) of 0.000274 s⁻¹ and a kon of 2.15e+06 M⁻¹ s⁻¹. In addition, in experiment [2], a half-maximal effect (EC50) was put at 61 pM and the “Top MFI” value was 864 MFI.

B6: hDLL3-3-1 camelid-derived humanized anti-DLL3 antibody (antibody, human IgG1, V domains shown)
VH: EVQLVESGGGLVQPGGSLRLSCAASTYTISSGYMGWFRQAPGKEREGVAAIYIGGSTTLYADSVKGRFTISRDNSKNTLYLQMNSLRAEDTAVYYCAAQLRPNSAYHPLDGRKYNYWGQGTLVTVSS
For B6, in experiment [1], the Kd turned out to be 304 pM, the koff was 0.00058 s⁻¹ and the association rate constant (kon) stood at 1.91e+06 M⁻¹ s⁻¹. Also, in experiment [2], the EC50 is 86 pM and the “Top MFI” value turned out to be 702 MFI.

B7: hDLL3-3-2 camelid-derived humanized anti-DLL3 antibody (antibody, V domains shown)
VH: EVQLVESGGGLVQPGGSLRLSCKSPTYTISSGYMGWFRQAPGKEREGVAAIYIGGSTTLYADSVKGRFTISRDNSKNTLYLQMNSLRAEDTAVYYCAAQLRPNSAYHPLDGRKYNYWGQGTLVTVSS
In experiment [1], B7 registered an equilibrium dissociation constant (Kd) of 399 pM, a dissociation rate constant (koff) of 0.000776 s⁻¹ and a kon of 1.95e+06 M⁻¹ s⁻¹. Besides, in experiment [2], the EC50 turned out to be 49 pM and the “Top MFI” value turned out to be 691 MFI.
